Laboratory results from patent US20240076389A1 (NATIONAL RESEARCH COUNCIL OF CANADA, published 2024).

Target: T1, human AXL expressed on the cell surface of tumor cell lines (human, UniProt P30530 26-894)
T1 construct: whole, on cells; also called cell surface-expressed AXL; cell-based AXL
T1 sequence (looked up): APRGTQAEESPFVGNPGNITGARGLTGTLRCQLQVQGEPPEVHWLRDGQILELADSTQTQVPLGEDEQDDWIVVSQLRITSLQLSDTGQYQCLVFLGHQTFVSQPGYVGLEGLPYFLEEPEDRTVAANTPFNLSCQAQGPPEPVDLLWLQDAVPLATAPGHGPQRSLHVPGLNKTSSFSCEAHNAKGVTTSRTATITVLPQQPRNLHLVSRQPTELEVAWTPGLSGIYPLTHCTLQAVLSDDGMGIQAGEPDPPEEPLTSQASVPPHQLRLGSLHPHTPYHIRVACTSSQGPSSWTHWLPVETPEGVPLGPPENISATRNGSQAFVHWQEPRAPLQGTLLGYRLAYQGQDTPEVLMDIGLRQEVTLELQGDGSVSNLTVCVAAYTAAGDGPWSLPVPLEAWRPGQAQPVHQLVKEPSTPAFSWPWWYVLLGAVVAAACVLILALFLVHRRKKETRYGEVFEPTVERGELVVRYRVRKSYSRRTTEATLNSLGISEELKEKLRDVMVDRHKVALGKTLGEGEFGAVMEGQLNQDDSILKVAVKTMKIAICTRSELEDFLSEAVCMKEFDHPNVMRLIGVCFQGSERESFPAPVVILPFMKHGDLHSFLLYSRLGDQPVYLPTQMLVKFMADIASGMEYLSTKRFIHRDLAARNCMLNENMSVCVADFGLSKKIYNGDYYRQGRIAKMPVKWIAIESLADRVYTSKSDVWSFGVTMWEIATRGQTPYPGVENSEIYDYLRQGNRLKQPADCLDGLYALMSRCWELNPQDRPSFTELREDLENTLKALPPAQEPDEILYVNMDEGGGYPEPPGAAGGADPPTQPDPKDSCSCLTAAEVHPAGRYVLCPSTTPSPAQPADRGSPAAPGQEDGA
Assay: FACS on MDA-MB-231 luciferase cells, apparent Kd, human Fc format
Procedure: FACS binding assay. Adherent cells were dissociated with non-enzymatic Sigma Cell Dissociation Solution (Cat. No. C5789). Cells suspensions were added to polypropylene, V-bottom 96-well plates and incubated for 2 hours on ice with primary antibodies at concentrations ranging from 100 nM to 0.001 nM or at a single dose of 100 nM (for the non-specific control). After incubation and washes, cells were incubated with fluorescently labeled secondary antibody (Alexa Fluor® 488 anti-human IgG from Jackson Cat. No 709-546-098) for 1 hour on ice, then washed. Cell viability was determined using Fixable viability dye 450 (20 min on ice). Stained cells were fixed in 1% formaldehyde at 4° C. and stored at 4° C. until acquisition which was performed the next day.
Binding of recombinant chimeric Abs to three cell lines was assessed by FACS as described above. The apparent Bmax and Kd determination is shown below in Table 14.

B1: NRC-sdAb001-Fc (VHH-human IgG1 Fc fusion) (Fc fusion)
chain: QVKLEESGGGLVQAGGSLRLSCTASASISSFDIMGWYRQAPGKQRELVAAITTLDIANYRDSVKGRFTISRDNAKNTVYLQMDSLKPEDTARYHCAAFQSDQNYWGQGTQVTVSS
notes: VHH fused N-terminally to human IgG1 Fc, made in HEK293 cells; also called NRC-sdAb0001-Fc; NRC-sdAb001-hIgG1; not shown: human IgG1 Fc
- Kd: 0.233 nM
